Reference: article doi:10.1101/2022.06.04.494830

Target: EWS low-complexity domain (EWS^LCD, EWS 1-264) (human) (UniProt Q01844)
Assay: co-sedimentation

Chain of EWS low-complexity domain (EWS^LCD, EWS 1-264) (human) (Q01844 1-264, one chain of several): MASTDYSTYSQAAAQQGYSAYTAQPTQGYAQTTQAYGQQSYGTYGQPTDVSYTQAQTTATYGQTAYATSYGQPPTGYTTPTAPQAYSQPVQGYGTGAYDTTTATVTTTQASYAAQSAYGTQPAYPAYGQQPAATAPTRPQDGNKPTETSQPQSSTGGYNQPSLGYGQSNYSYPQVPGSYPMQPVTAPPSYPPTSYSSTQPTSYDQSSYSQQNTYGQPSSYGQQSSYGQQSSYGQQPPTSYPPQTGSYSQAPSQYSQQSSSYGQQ

## FLI1 DNA-binding domain (FLI1^DBD) (domain or fragment)
  percent of total FLI1^DBD in the pellet fraction: 55%
